Data: patent US7335638B2, “Prevention and treatment of mycoplasma-associated diseases” (priority 2000, dated 2008)

Test system: adenocarcinoma of Walker
Assay: Treatment of experimental adenocarcinoma in rats (Walker tumor)
Type: in vivo, rat
Conditions: both died after 12 days of treatment; prolactine added to TS, PDTC and plant extract
Text: Malignant neoplasia was induced experimentally by inoculation of 500,000 cells of adenocarcinoma of Walker in the right flank of several rats in order to verify if the use of simultaneous anti-proliferative and anti-oxidative drugs may decrease the growing of the neoplasia and the level of metastases. Usually the animals receiving such inoculation of adecarcinoma cells survived for 10-12 days and presented metastasis to many ganglia, liver and lung. Nine of these animals were inoculated after 7 days of tumor cells with 0.5 ml of trans-sialidase TS (supernatant of culture of T. cruzi) as described in the U.S. patent application Ser. No. 10/086,913, filed Mar. 1, 2002 and with 0.75 mg of PDTC, into the peritoneum every day. The particles containing DNA or RNA prepared from plant extracts (garlic, Ginkgo biloba and tomato) as described above was also administered. All animals received 0.5 ml of garlic extract by subcutaneous route (Table 1 below). The tumors were similar in size for all animals at the beginning of the treatment, i.e. 2.8×2.7 cm.
Rats 1-4 were followed until death. Rats 3 and 4 received 0.5 ml of Ginkgo biloba's extract, every day. The tumors increased slower in all 4 animals receiving plant extracts than the controls. […]
Prolactin and/or growth hormone administration to diminish these effects was also evaluated. […]

B1: prolactine: ovine prolactine from Sigma, neuroendocrine hormone (protein, UniProt P01240 31-229, looked up)
Prolactin: TPVCPNGPGNCQVSLRDLFDRAVMVSHYIHNLSSEMFNEFDKRYAQGKGFITMALNSCHTSSLPTPEDKEQAQQTHHEVLMSLILGLLRSWNDPLYHLVTEVRGMKGVPDAILSRAIEIEEENKRLLEGMEMIFGQVIPGAKETEPYPVWSGLPSLQTKDEDARHSAFYNLLHCLRRDSSKIDTYLKLLNCRIIYNNNC
  tumor at necropsy, Rat 4 compared with Rat 1: smaller size of the tumor with less microscopic necrosis
